Test results: publication PMC10075960, “Inhibition of FAM46/TENT5 activity by BCCIPα adopting a unique fold” (Science Advances, 2023)

T1: FAM46A (residues 64 to 394) (human, UniProt Q96IP4 64-394)
T1 construct: human FAM46A (TENT5A) residues 64 to 394; also called TENT5A; source: E. coli BL21 (DE3), purified (Ni-NTA, on-column 3C cleavage, Resource Q); not shown: His6, N-terminal, cleaved
T1 sequence (looked up): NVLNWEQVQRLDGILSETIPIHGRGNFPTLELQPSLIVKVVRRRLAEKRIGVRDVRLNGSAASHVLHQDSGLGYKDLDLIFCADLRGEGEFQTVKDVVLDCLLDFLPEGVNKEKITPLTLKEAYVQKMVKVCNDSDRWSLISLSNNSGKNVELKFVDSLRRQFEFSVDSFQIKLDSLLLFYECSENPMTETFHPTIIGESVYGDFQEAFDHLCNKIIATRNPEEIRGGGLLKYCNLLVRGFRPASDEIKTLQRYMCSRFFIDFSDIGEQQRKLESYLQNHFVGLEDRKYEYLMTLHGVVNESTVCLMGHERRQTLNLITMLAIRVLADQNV

T2: Full-length human FAM46C with a FLAG-tag (human, UniProt Q5VWP2 1-391)
T2 sequence (looked up): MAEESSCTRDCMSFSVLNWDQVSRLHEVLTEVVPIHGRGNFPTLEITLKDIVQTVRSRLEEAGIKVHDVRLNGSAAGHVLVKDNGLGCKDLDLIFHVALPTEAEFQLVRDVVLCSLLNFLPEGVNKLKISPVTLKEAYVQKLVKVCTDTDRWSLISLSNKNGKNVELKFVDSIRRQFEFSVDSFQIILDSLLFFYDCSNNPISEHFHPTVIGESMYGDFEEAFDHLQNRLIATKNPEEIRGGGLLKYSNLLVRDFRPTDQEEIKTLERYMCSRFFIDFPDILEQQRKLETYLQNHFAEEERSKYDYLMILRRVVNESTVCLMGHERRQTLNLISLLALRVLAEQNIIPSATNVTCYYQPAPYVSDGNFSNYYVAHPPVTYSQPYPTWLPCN

T3: Full-length human FAM46A with a FLAG-tag (human, UniProt Q96IP4 1-442)
T3 sequence (looked up): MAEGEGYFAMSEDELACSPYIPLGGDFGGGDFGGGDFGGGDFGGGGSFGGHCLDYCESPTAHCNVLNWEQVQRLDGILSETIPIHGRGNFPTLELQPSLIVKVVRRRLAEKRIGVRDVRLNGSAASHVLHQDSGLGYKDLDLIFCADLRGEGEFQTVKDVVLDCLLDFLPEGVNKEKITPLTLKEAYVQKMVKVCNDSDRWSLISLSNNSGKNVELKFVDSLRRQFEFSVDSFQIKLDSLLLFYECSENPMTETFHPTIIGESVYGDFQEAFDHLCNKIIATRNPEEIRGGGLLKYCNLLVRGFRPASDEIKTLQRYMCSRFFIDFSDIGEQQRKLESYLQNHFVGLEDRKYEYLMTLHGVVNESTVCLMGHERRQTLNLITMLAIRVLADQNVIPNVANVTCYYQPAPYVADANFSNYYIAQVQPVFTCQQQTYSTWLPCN

B1: Nb.1 (VHH)
VHH: QVQLQESGGGLVQAGGSLRLSCAASGTISPRGVMGWYRQAPGKEREFVAAINYGGTTYYADSVKGRFTISRDNAKNTVYLQMNSLKPEDTAVYYCAVYYYINSQRKVLLYWGQGTQVTVSS
notes: nanobody selected from a synthetic yeast-display library; cloned into a modified pET28 vector; also called nanobody Nb.1
B2: BCCIPα-ΔL (residues 50 to 322 with deletions of residues 112 to 122 and 231 to 280) (domain or fragment, human, UniProt Q9P287-2 50-322, looked up)
chain: DEVIDEEVNIEFEAYSLSDNDYDGIKKLLQQLFLKAPVNTAELTDLLIQQNHIGSVIKQTDVEVFGFISLLNLTERKGTQCVEQIQELVLRFCEKNCEKSMVEQLDKFLNDTTKPVGLLLSERFINVPPQIALPMYQQLQKELAGAHRTNKPCGKCYFYLLISKTFVEAGQHNGGSRGQVTALVSLKAGLIQSRSTLSDFQGTFMTVGIALS
notes: human BCCIPα residues 50 to 322 with two loop deletions; source: E. coli BL21 (DE3), purified (Ni-NTA, on-column 3C cleavage, Resource Q); not shown: His6, N-terminal, cleaved
B3: BCCIPα with a Myc-tag (natural protein, human, UniProt Q9P287-2 1-322, looked up)
chain: MASRSKRRAVESGVPQPPDPPVQRDEEEEKEVENEDEDDDDSDKEKDEEDEVIDEEVNIEFEAYSLSDNDYDGIKKLLQQLFLKAPVNTAELTDLLIQQNHIGSVIKQTDVSEDSNDDMDEDEVFGFISLLNLTERKGTQCVEQIQELVLRFCEKNCEKSMVEQLDKFLNDTTKPVGLLLSERFINVPPQIALPMYQQLQKELAGAHRTNKPCGKCYFYLLISKTFVEAGKNNSKKKPSNKKKAALMFANAEEEFFYEEQGKPEVLGGPDTRRGLEPVPIQHNGGSRGQVTALVSLKAGLIQSRSTLSDFQGTFMTVGIALS
B4: BCCIPα-ΔS (residues 50 to 322 with deletions of residues 112 to 122, 235 to 243, and 273 to 276) (domain or fragment, human, UniProt Q9P287-2 50-322, looked up)
chain: DEVIDEEVNIEFEAYSLSDNDYDGIKKLLQQLFLKAPVNTAELTDLLIQQNHIGSVIKQTDVEVFGFISLLNLTERKGTQCVEQIQELVLRFCEKNCEKSMVEQLDKFLNDTTKPVGLLLSERFINVPPQIALPMYQQLQKELAGAHRTNKPCGKCYFYLLISKTFVEAGKNNSAALMFANAEEEFFYEEQGKPEVLGGPDTRPVPIQHNGGSRGQVTALVSLKAGLIQSRSTLSDFQGTFMTVGIALS
notes: human BCCIPα residues 50 to 322 with three loop deletions; source: E. coli BL21 (DE3), purified (Ni-NTA, on-column 3C cleavage, Resource Q); not shown: His6, N-terminal, cleaved

How the values were obtained:
[1] = biological target: B4; experiment: cryo-EM structure; FAM46C/BCCIPα-ΔS/Nb.1 mixed 1:1:2, purified on Superdex 200; filament segments treated as single particles, D2 symmetry, 6.5 Å; models docked as rigid bodies; conditions: both partners purified
FAM46C/BCCIPα-ΔS complex = biological target: T4, FAM46C/BCCIPα-ΔS complex (human, UniProt Q5VWP2 1-391; Q9P287-2 50-322, deletions of residues 112 to 122 | deletions of residues 235 to 243 | deletions …); experiment: as above; conditions: both partners purified
T4 construct: human FAM46C (TENT5C), as m15; Avi-tagged, biotinylated FAM46C residues 15 to 350 in the nanobody screening; human BCCIPα residues 50 to 322 with three loop deletions, as m12; with Nb.1 it forms a 4:4:4 assembly of four 1:1:1 units and filaments; also called FAM46C/BCCIPα complex; FAM46C/BCCPα complex; source: E. coli BL21 (DE3), each protein purified, then mixed; not shown: His6, N-terminal, …

[2] = biological target: T1, FAM46A (residues 64 to 394); experiment: crystal structure; FAM46A (64-394) with BCCIPα-ΔS (3.5 Å) or BCCIPα-ΔL (3.2 Å); complexes mixed 1:1 and purified on Superdex 200; conditions: both partners purified
[3] = biological target: T2, Full-length human FAM46C with a FLAG-tag; experiment: cell-based or functional assay
[4] = biological target: T3, Full-length human FAM46A with a FLAG-tag; experiment: cell-based or functional assay

Binder: B1
binding result [1]: binds
stoichiometry N (FAM46C/BCCIPα-ΔS complex): 1

Binder: B2
binding result [2]: binds

Binder: B3
mean nucleus/cytoplasm intensity ratio of FAM46C in U2OS cells coexpressing BCCIPα (immunofluorescence; 1.94 without BCCIPα) [3]: 3.04
mean nucleus/cytoplasm intensity ratio of FAM46A in U2OS cells coexpressing BCCIPα (immunofluorescence; 1.90 without BCCIPα) [4]: 2.85

Binder: B4
binding result [2]: binds
